Test results taken from IntAct's records for PubMed 9499404.

B1: Cell division control protein 53 (Saccharomyces cerevisiae), Q12018 (parent)
chain: MSETLPRSDDLEATWNFIEPGINQILGNEKNQASTSKRVYKILSPTMYMEVYTAIYNYCVNKSRSSGHFSTDSRTGQSTILVGSEIYEKLKNYLKNYILNFKQSNSETFLQFYVKRWKRFTIGAIFLNHAFDYMNRYWVQKERSDGKRHIFDVNTLCLMTWKEVMFDPSKDVLINELLDQVTLGREGQIIQRSNISTAIKSLVALGIDPQDLKKLNLNVYIQVFEKPFLKKTQEYYTQYTNDYLEKHSVTEYIFEAHEIIKREEKAMTIYWDDHTKKPLSMALNKVLITDHIEKLENEFVVLLDARDIEKITSLYALIRRDFTLIPRMASVFENYVKKTGENEISSLLAMHKHNIMKNENANPKKLALMTAHSLSPKDYIKKLLEVHDIFSKIFNESFPDDIPLAKALDNACGAFININEFALPAGSPKSATSKTSEMLAKYSDILLKKATKPEVASDMSDEDIITIFKYLTDKDAFETHYRRLFAKRLIHGTSTSAEDEENIIQRLQAANSMEYTGKITKMFQDIRLSKILEDDFAVALKNEPDYSKAKYPDLQPFVLAENMWPFSYQEVEFKLPKELVPSHEKLKESYSQKHNGRILKWLWPLCRGELKADIGKPGRMPFNFTVTLFQMAILLLYNDADVLTLENIQEGTSLTIQHIAAAMVPFIKFKLIQQVPPGLDALVKPETQFKLSRPYKALKTNINFASGVKNDILQSLSGGGHDNHGNKLGNKRLTEDERIEKELNTERQIFLEACIVRIMKAKRNLPHTTLVNECIAQSHQRFNAKVSMVKRAIDSLIQKGYLQRGDDGESYAYLA
partner: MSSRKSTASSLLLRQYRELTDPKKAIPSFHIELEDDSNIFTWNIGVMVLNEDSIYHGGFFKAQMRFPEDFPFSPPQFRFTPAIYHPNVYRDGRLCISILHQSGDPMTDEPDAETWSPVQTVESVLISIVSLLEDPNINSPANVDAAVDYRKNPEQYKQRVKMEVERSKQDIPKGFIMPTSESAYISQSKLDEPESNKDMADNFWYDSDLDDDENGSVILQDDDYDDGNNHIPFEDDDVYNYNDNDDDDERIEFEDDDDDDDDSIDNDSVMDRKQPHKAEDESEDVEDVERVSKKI

Variants of: B1
Details: with ubc3_yeast CDC34, P14682

| Variant | effect of a mutation on the interaction |
| --- | --- |
| R488C | disrupting interaction |
